In the supplement of paper PMC12764529:
± gives the half width of the 95% confidence interval.

Assays:
[1] = folding stability dG unfold (combined trypsin and chymotrypsin); higher = more stable
Outline: (§1)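 Designed mini-proteins (under 80 residues, no cysteine) in a PA-tagged cDNA display construct were digested with trypsin and chymotrypsin. Each protease was used at 11 concentrations (threefold dilutions) plus a no-protease condition, followed by sequencing. K50 was inferred by Bayesian fitting of sequencing counts, and unfolding free energy was derived against a sequence-predicted unfolded-state K50 and a shared folded-state K50, per protease or combined. Only designs with AlphaFold2 dimer inter-PAE above 15 were kept.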

[2] = folding stability dG unfold from chymotrypsin proteolysis; higher = more stable
Outline: as §1

[3] = folding stability dG unfold from trypsin proteolysis; higher = more stable
Outline: as §1

Row | Sequence | folding stability dG unfold [1] [kJ/mol] | folding stability dG unfold [2] [kJ/mol] | folding stability dG unfold [3] [kJ/mol]
1 | SAGGSAGGMVTIASITFEEDPEGGITVTVYLPSNGKTITVPVPADTPEAEARARAEAAARAYAASAGGSAGG [r6_628_JUSTAS] | 5.36 ± 0.628 | 6.22 ± 0.41 | 3.74 ± 0.117
2 | SAGGSAGGSAMEELVKEAIKEGKPGEVVLIRNEDGSVFALTVKDGKIEIKKLEEVKEVVEESAGGSAGGSAG [r3_244_TrROS_Hall] | 4.82 ± 0.711 | 4.44 ± 0.389 | 6.05 ± 0.377
3 | SAGGPKWYYITIKIPDDPKKAERLVDRLQDLFGEDVRINVNPGNNHVTVWIPNDLRPLLKDHGLEITPSAGG [r13_156_TrROS] | 12.3 ± 0.197 | 12.34 ± 0.0837 | 12.3 ± 0.36
4 | SAGGSAGGATTEINLPLKVPGSGVTITKMTYDPNKDVYFVTATFPDGTKKTIKVKSLEELKKLLSAGGSAGG [r6_548_JUSTAS] | 13 ± 0.628 | 10.5 ± 0.192 | 16 ± 1
5 | SAGGKPLLIKVKVRLKNGKELTITVREGESLEEILARARELLGKPIEVEKIEVIPLPPKKEVKKKEKSAGGS [r8_285_TrROS_Hall] | 10.3 ± 0.389 | 12 ± 0.301 | 6.21 ± 0.0795
6 | SAGGSAGGSAGGELNIDDIKIDWFPADDMDDRYIFTEKIRGPNGKPTMEVTFWLPAGDLSAGGSAGGSAGGS [r10_155_TrROS] | 0.035 ± 0.753 | -1.09 ± 2.59 | 1.1 ± 0.285
7 | SAGGSAGGSSYLVEVISRKKVKVGGKERYVVPVRIPDNGELVELVVSEDVAKNIKPGDVVVLSSAGGSAGGS [r12_382_TrMRF] | 0.1 ± 0.502 | -0.025 ± 0.502 | -0.02 ± 0.243
8 | SEEPVEERDIVVKPGEEVKLELPEEPETVRVYVFNEDGELIEEREFPPGATPEELEGLKLPPGAVVRIVRSA [r9_215_TrROS_Hall] | 9.19 ± 0.188 | 10.6 ± 0.121 | 5.54 ± 0.151
9 | SAGEPLGPEKAKELAEELVERVAREIAERLGLAPEEVEVVSVELTPDGRLVLTLRVPEREFTFVFPVEGSAG [r5_565_TrMRF] | 19.3 ± 0.226 | 20.4 ± 0.226 | 14 ± 0.326
10 | SAGGSAGGSAGGSPVRVKLKFKKKFTVLLPLTDEDDEILDVEKEYTVEITLEVTLPPDLSAGGSAGGSAGGS [r4_326_TrMRF] | 16.8 ± 2.01 | 18.2 ± 0.837 | 13.6 ± 0.628
11 | KTIEIWIPMPMGQAETFVKSLARKLGLPPDDYKVDNVEMQPNKDGWPYVKMEIKLPNNGKEIEIIMPPGWFS [r1_21_TrROS] | 9.95 ± 0.962 | 10.9 ± 0.247 | 6.99 ± 0.255
12 | SAGGSAIIVIEIEMGGKPVPIMIPIPPNMPPEDAREEIKELAKQEVRDPDGKPVRVKIEVIPPPPESAGGSA [r15_246_TrROS] | 2.62 ± 0.46 | 3.95 ± 0.13 | 0.682 ± 0.247
13 | SAGGSAGGSAGSKTIEVVIPVKPNELTPEQAENLIKPFFPDAKIEVTPEGNYLVVKVEVSSAGGSAGGSAGG [r11_7_TrMRF] | 1.53 ± 0.753 | 1.4 ± 0.28 | 1.99 ± 0.46
14 | SAGGSAGGSKAGQPIEGPVKIKFTSNGKPHEIDVEVYVLPPGNLIIYFPDESIMLPADNIEIESAGGSAGGS [r12_790_TrROS] | 6.69 ± 0.264 | 7.98 ± 0.326 | 4.57 ± 0.301
15 | SAGGSAGGSAGDNFKIKIESFNIMRLPDGYVMISIKIEITVGDKPVEITIMIIIPPGAPISAGGSAGGSAGG [r17_352_TrROS] | 23.8 ± 1.72 | 24 ± 0.753 | 16.9 ± 0.628
16 | SAGGSAVERLRELLKELGVEVTVERKDGKVYIRVEASPEKREKLAEALRELFGKDIEIEVLEEGEEPSAGGS [r16_514_TrROS_Hall] | 14.6 ± 0.335 | 13.2 ± 0.305 | 16.2 ± 0.753
17 | SKIRIEVPGETIEITVPPGATVEFDEETGEITITLPDGSKRTIRLPPNAKIEVVDGEIRITIRLPPPPEPSA [r9_653_TrROS_Hall] | 12.3 ± 0.879 | 11.6 ± 0.837 | 13.2 ± 0.502
18 | SYSTSTVTVPVAADEIDKAKEIAKELAEKLPPNSRVTFNMPAPDGSTFTVEVTVNPDGTITVTVSDSLPAVS [r1_350_JUSTAS] | 5.6 ± 0.364 | 4.12 ± 0.544 | 6.49 ± 0.172
19 | SAGGSAMVMITIKIKFPGNEVEINMPAEDLDELLSHPELGDNFEITEIEVMPIPPPPVDPEQAEEKSAGGSA [r15_460_TrROS] | 4.29 ± 1 | 3.7 ± 0.46 | 5.06 ± 0.628
20 | SAGGSAGGSAGYIKTEHEVTVMEKDPDGGTKMIEVPVKITIPIIPIPPEALEKNPEALKKFLSAGGSAGGSA [r18_114_TrROS] | 2.15 ± 0.92 | 1.47 ± 0.586 | 1.93 ± 0.795
21 | SAGGSAKVKIEVIELPPGMTEEELRKLAEEKGLKVEKVDKENLLVKITAKSKEEAEKIKKELEEKLSAGGSA [r15_546_TrROS_Hall] | 2.14 ± 1.13 | 3.13 ± 0.544 | 1.88 ± 0.586

Row | Sequence | folding stability dG unfold [1] [kJ/mol] | folding stability dG unfold [2] [kJ/mol] | folding stability dG unfold [3] [kJ/mol]
22 | SAGGSAGGSAAYTTPDGTNIILKDPNRPVVSLYKKDPSTNTWTPVSTLPISEVPEEILELLSAGGSAGGSAG [r3_241_JUSTAS] | 2.51 ± 0.259 | 2.44 ± 0.331 | 1.78 ± 0.092
23 | SAGGSAGGVPEVVEEVAREVDPRIVTRVEVRVFEPPPEYRLVVVVVELRLPTERRFVPRVVRLRSAGGSAGG [r6_630_TrMRF] | 13.6 ± 1.3 | 14.6 ± 0.276 | 11.9 ± 0.795
24 | SGNGEVEVEINIRIVIEPWDPNGEPDPVPIAEIPIKAEYDANDPEAVDFAVLDILDLLAPENPGYRIHIESA [r9_1112_TrROS] | 3.06 ± 0.259 | 1.58 ± 0.197 | 4.64 ± 0.28
25 | SAGGSAGGSPDEGDPVKITILIMIMIPNENGEPYFIFIRVEITIDPKDNKIQITKIDEIYIFPSAGGSAGGS [r12_358_TrROS] | 18.5 ± 0.502 | 19.5 ± 0.418 | 15.6 ± 0.669
26 | SAGGSTTVTIETYESEKFPNGSFKTSTKKIVITNTLSPDEELTLPNGKKIPASLSAEEIAEAILKSESAGGS [r16_440_JUSTAS] | 0.633 ± 0.41 | 2.19 ± 0.46 | -3.55 ± 0.962
27 | SAPIVIPAKAGSPENVLKAIKEAKELASKGKKVYLPILTKDGPIFFEVDPKTKTIKIYNPKTGEKKDLSSAG [r14_423_TrMRF] | 5.25 ± 0.669 | 4.36 ± 0.293 | 6.05 ± 0.134
28 | SMPLTPAEVAEARARAAREAAEAAAGVPVTVRVTLSTPDRELTVTLPATESLAAVMKAHPDVTVEVEVEASA [r9_513_JUSTAS] | 1.19 ± 0.247 | 0.189 ± 0.46 | 1.92 ± 0.18
29 | SAGGMTVTLEIEIPAEELSEEELKALLEELFPNAEVTVERLPDGTLRITIRVEVPPAPPEVVVLPDKSAGGS [r16_535_TrROS_Hall] | 12.1 ± 0.502 | 12.4 ± 0.502 | 11 ± 0.343
30 | SAGGSPIQTAVTTNTLGNETITTTTLVPPEAVATSVTTVYEPDPNSDNYVVKSVLTTTTSTLPPSDAASAGG [r13_568_JUSTAS] | -0.362 ± 0.259 | 0.254 ± 0.28 | -1.74 ± 0.23
31 | SAGNWKIEIKVKHRRTPDGYYRVTARIQIWDPKNGKPLREIPIEGPFDSPEQAERRARKKAKEILKALSAGG [r19_255_TrROS] | 11.5 ± 0.544 | 11.3 ± 0.184 | 12.4 ± 0.285
32 | SAGGSAGGSEEELKKLLDNIKEVKVVENENGEKYVVFTVTDKNGKKITIVAKSPEARELAKKLSAGGSAGGS [r12_466_TrROS_Hall] | 8.18 ± 0.46 | 9.83 ± 0.192 | 6.05 ± 0.276
33 | SAGGSAGGSAGSMSLPVTELVVESVDPLEGVLVVKVKGTLPDGSEVELTLEFKPDEPLELSAGGSAGGSAGG [r11_211_JUSTAS] | 2.97 ± 0.46 | 1.57 ± 0.276 | 4.15 ± 0.18
34 | SFKLEKTITLPDYVLKIEVTFKPKPDKTVIAPIKVTIYDPVKKKPYTKELTKPFPPEDPLKFVEEALKEIFS [r1_171_TrMRF] | 1.83 ± 1.38 | 0.985 ± 1.76 | 1.78 ± 0.418
35 | SAGGPPGWKPVEMKITVMFDDPEEAAEKIKEEVRSHFPNIEITKVEVQRNPENNMYMVTVDIRMWVPSAGGS [r8_120_TrROS] | 14.1 ± 0.46 | 14.1 ± 0.339 | 12.9 ± 0.753
36 | SAGGAEIKITSIEYNPETKTITAKVEITVDGKKFTFTITIKLKAAPAPPTVTVTDKDIPGKTVTLTKTSAGG [r13_615_TrROS_Hall] | 8.78 ± 1 | 9.95 ± 0.544 | 6.32 ± 0.586
37 | SAGGSAGGSAFQIEDLKIEKVEFNPDGMVHNELEITLPGGKELEVSIMIDPKKPGKLMIMIVSAGGSAGGSA [r18_97_TrROS] | 6.95 ± 1.3 | 5.94 ± 0.205 | 8.29 ± 0.46
38 | SAGGSAGGSASITLTLGDTPLEVSTDPSTNTYTFTYPAPGLVLTLDVSTGKLSARPLAELASAGGSAGGSAG [r3_137_JUSTAS] | 4.73 ± 0.322 | 7.07 ± 0.297 | 0.903 ± 0.46
39 | SAGGKPKKTILIPLIVPPGKPESAIKALAEFLEAKGYELERIEPVPVGDRLRLVAIFRKPDGTEIKVGSAGG [r13_421_TrMRF] | 7.45 ± 0.289 | 7.97 ± 0.46 | 6.96 ± 0.155
40 | SAGMKIRILILGKGDPAQVEALAKELEAKLKEELGTEDVEVETLPASLTEEAAEERAKEEKVDIVVYESAGG [r19_89_JUSTAS] | 4.14 ± 0.377 | 4.5 ± 0.544 | 3.56 ± 0.188
41 | SAGGSAGGSMSEELLAEGPVRIRVRVRNKDGSVEEIEVEAGEEIELPEELKNQDVEIVSIEPVSAGGSAGGS [r12_161_TrROS_Hall] | 7.26 ± 0.372 | 8.99 ± 0.368 | 3.51 ± 0.243
42 | SAGGSAGGSAGGPYEKAVEAAKALGSEDKPITIKLPNGTTVTLKPSELPSLPYEDPIVLLSAGGSAGGSAGG [r7_863_JUSTAS] | 1.48 ± 0.711 | 1.09 ± 0.753 | 1.53 ± 0.389
